Measured values: patent US20230058316A1, “PEGYLATED IGE-DEPENDENT HISTAMINE-RELEASING FACTOR (HRF)-BINDING PEPTIDE AND USE THEREOF” (EWHA UNIVERSITY - INDUSTRY COLLABORATION FOUNDATION, priority 2020, published 2023)
Where two headings read alike, the source gives them in different places. Where no end group is shown, it is not given here.

How the values were obtained:
[1] = test system: eosinophils in bronchoalveolar lavage fluid; test: Eosinophil increase in bronchoalveolar lavage fluid, ovalbumin-induced bronchial asthma and rhinitis mouse model; type: in vivo; settings: 1 mg/kg IP, 8 times daily for 8 days, FIG. 9
Description: (§1) A bronchial asthma and rhinitis animal model was prepared by the following method. An ovalbumin solution was prepared by dissolving ovalbumin in an aluminum hydroxide solution (1 mg/ml) 28 and 14 days before the start of inducing bronchial asthma and rhinitis, and 200 μl of the solution was intraperitoneally injected into each mouse for sensitization. After 14 days of final sensitization, 20 μl of saline/PBS (normal control; NC) or 20 μl of 10 mg/mL ovalbumin solution (positive control; PC) was instilled into the nasal cavity of each lightly anesthetized mouse 4 times every other day for 8 days to induce bronchial asthma and rhinitis.
After anesthetizing the mouse by injecting a mixture of zoletil (250 mg/kg) and rompun (50 mg/kg) intraperitoneally, a 20-gauge catheter was inserted into the trachea by puncturing the trachea with a knife, and 0.6 mL of PBS at a time was injected-collected three times, and the collection rate was adjusted to 80%. The collected bronchoalveolar lavage fluid was centrifuged at 4° C., 3000 rpm for 10 minutes, and the cell precipitate was resuspended in 0.1 mL of PBS. 20 μL of the suspension was analyzed for the composition of blood cells using a fully automatic hematology analyzer (HEMAVET 950 FS, Drew Scientific, Inc.).

IL-5 = IL-5 secretion in bronchoalveolar lavage fluid, ovalbumin-induced bronchial asthma and rhinitis mouse model; type: in vivo; settings: 1 mg/kg IP
Description: as §1
After the end of the experiment, the amount of IL-5 in the supernatant obtained by centrifuging bronchoalveolar lavage fluid was measured and quantified by enzyme immunosorbent detection using mouse IL-5 ELISA kit (Biolegend, USA).
(§2) Next, in order to confirm whether there is an effect of inhibiting IL-5 secretion even when administered in a small number of times, the dTBP2 of Preparative Example 4 and Example 3 was administered to the mouse model of Example 4-1 through intraperitoneal injection once in 4 days for a total of 2 times for 8 days inducing bronchial asthma and rhinitis. The amount of IL-5 was measured and quantified by the enzyme immunosorbent detection method in the same manner.
(§3) In addition, the dTBP2 of Preparative Example 4 and Example 3 was administered to the mouse model of Example 4-1 through intraperitoneal injection once on the 1st day of 8 days inducing bronchial asthma and rhinitis. The amount of IL-5 was measured and quantified by the enzyme immunosorbent detection method in the same manner.
The amount of IL-5 was measured and quantified by the enzyme immunosorbent detection method in the same manner.

IL-4 = IL-4 secretion in bronchoalveolar lavage fluid, ovalbumin-induced bronchial asthma and rhinitis mouse model; type: in vivo; settings: 1 mg/kg IP
Description: as §1
After the end of the experiment, the amount of IL-4 in the supernatant obtained by centrifuging bronchoalveolar lavage fluid was measured and quantified by enzyme immunosorbent detection using mouse IL-4 ELISA kit (Biolegend, USA).
as §2, with “IL-4” for “IL-5”
as §3, with “IL-4” for “IL-5”
The amount of IL-4 was measured and quantified by the enzyme immunosorbent detection method in the same manner.

ovalbumin-specific IgE = test: Ovalbumin-specific IgE secretion in mouse plasma, ovalbumin-induced bronchial asthma and rhinitis mouse model; type: in vivo; settings: 1 mg/kg IP
Description: as §1
Ovalbumin is an allergy-causing substance mainly contained in egg whites. […] After completion of the experiment, the mouse was anesthetized by injecting a mixture of zoletil (250 mg/kg) and rompun (50 mg/kg) intraperitoneally, and the chest was opened. 0.8 mL blood was collected by puncture of the heart with a 26 gauge 1 mL syringe coated with heparin. The collected blood was centrifuged at 4° C., 3000 rpm for 10 minutes to obtain plasma components. The amount of ovalbumin-specific IgE in the blood serum obtained through the above process was measured and quantified by enzyme immunosorbent detection method using mouse OVA specific IgE kit (Biolegend, USA).
as §2, with “inhibiting ovalbumin-specific IgE” for “inhibiting IL-5”, “secretion in plasma” for “secretion”, “of ovalbumin-specific IgE secretion” for “of IL-5”
as §3, with “ovalbumin-specific IgE secretion” for “IL-5”
The amount of ovalbumin-specific IgE secretion was measured and quantified by the enzyme immunosorbent detection method in the same manner.

[2] = Pharmacokinetic analysis in ICR mice; type: in vivo; settings: IV, 10 mg/kg
Description: The dTBP2 of Preparative Examples 4 and Example 3 was added to a solution prepared in DMSO:PEG400:DW=5:55:40, and this was administered at the concentration of 5 mL/kg. Blood samples were taken at 0.083, 0.25, 0.5, 1, 2, 4, and 8 hours post injection. The blood was centrifuged at 4° C., 3000 rpm for 10 minutes, to which cold acetonitrile containing internal standard was added in an amount 4 times the plasma component, and then deproteinization was carried out. After centrifugation again at 4° C., 13000 rpm for 10 minutes, the supernatant was collected and analyzed by Agilent 6460 LC-MS/MS. Pharmacokinetic analysis was performed with Phoenix WinNonlin (Pharsight ver 6.4, USA) using a non-compartmental analysis model.

[3] = microsomes; for Mouse (%) remaining after reaction: 0.5 h
Description: (§4) Upon completion of the reaction, cold acetonitrile containing internal standard was added, and then deproteinization was carried out. The reactant was centrifuged at 4° C., 4000 rpm for 15 minutes, and the supernatant was analyzed by LC-MS/MS. The system was verified with buspirone, a reference material.

[4] = microsomes; for Human (%) remaining after reaction: 0.5 h
Description: as §4

Substance: Example 3: dTBP2 (WYVYPSM) conjugated at the N-terminal with methoxy polyethylene glycol propionaldehyde (10 kDa) ({mPEG propionaldehyde 10 kDa}-WYVYPSM)
- reduction of increased eosinophils vs positive control [1]: about 55%
- reduction of IL-5 secretion (IL-5; 8 times daily for 8 days, FIG. 10): about 50%
- inhibiting IL-5 secretion (IL-5; once in 4 days for a total of 2 times (FIG. 11) and once on the 1st day (FIG. 12)): effective
- IL-5 secretion inhibitory effect (IL-5; once on the 5th day of 8 days, FIG. 13): effectively inhibited
- reduction of IL-4 secretion (IL-4; 8 times daily for 8 days, FIG. 14): about 60%
- inhibiting IL-4 secretion (IL-4; once in 4 days for a total of 2 times (FIG. 15) and once on the 1st day (FIG. 16)): effective
- IL-4 secretion inhibitory effect (IL-4; once on the 5th day of 8 days, FIG. 17): effectively inhibited
- inhibitory ability on ovalbumin-specific IgE secretion compared with dTBP2 of Preparative Example 4 (ovalbumin-specific IgE; FIGS. 23 and 24): better
- inhibiting ovalbumin-specific IgE secretion (ovalbumin-specific IgE; once in 4 days for a total of 2 times (FIG. 23) and once on the 1st day (FIG. 24)): effective
- ovalbumin-specific IgE secretion inhibitory effect (ovalbumin-specific IgE; once on the 5th day of 8 days, FIG. 25): inhibitory effect
- inhibiting ovalbumin-specific IgE secretion in plasma (in words) (ovalbumin-specific IgE; plasma, 8 times daily for 8 days): very effective
- reduction of ovalbumin-specific IgE secretion (ovalbumin-specific IgE; plasma, 8 times daily for 8 days, FIG. 22): about 50%
- AUClast [2]: 2830 ng·h/mL
- AUC∞ [2]: 3150 ng·h/mL
- CL (clearance from plasma) [2]: 54.8 mL/min/kg
- T1/2 (half life) [2]: 3.18 h
- Vss (steady-state volume of distribution) [2]: 7.37 L/kg
- increase of half-life compared to the dTBP2 of Preparative Example 4 [2]: about 1.6 times
- initial plasma concentration relative to the dTBP2 of Preparative Example 4 [2]: about 1000 times
- stability in plasma ([2]; FIG. 26, versus Preparative Example 4): improved
- Mouse (%) remaining after reaction [3]: more than 75%
- Mouse (%) remaining after reaction ([3]; pH 7.4): 75.26%
- half-life according to the evaluation criteria ([3]; mouse): 1 to 3 h
- half-life according to the evaluation criteria ([4]; human): 1 to 3 h
- Human (%) remaining after reaction [4]: more than 75%
- Human (%) remaining after reaction ([4]; pH 7.4): 75.77%
